# Measured values: the RNAGym collection of RNA variant scans (doi:10.7554/elife.80360)
# B1: HDV Ribozyme (parent)
# chain: GGCCGGCAUGGUCCCAGCCUCCUCGCUGGCGCCGGCUGGGCAACAUUCCGAGGGGACCGUCCCCUCGGUAAUGGCGAAUGGGACCCA
# Variants of: B1
# Test: self-cleavage, relative activity (ratio to wild type); higher = more cleavage; co-transcriptional
row,Variant,self-cleavage
1,GGCCGGCAUGGUCCCAGCCUACUCGCUGGCGCCGGCUGGGCAACAUUCCGAGGGGACCGUCCCCUCGGUAAUCGCGAAUGGGACCCA,0.0678
2,GGCCGGCAUGGUCCCAGCCUACUCGCUGGCGCCGGCUGGGCAACAUUCCGAGGGGACCGUCCCCUCGGCAAUGGCGAAUGGGACCCA,0.0426
3,GGCCGGCAUGGUCCCAGCCUGCUCGCUGGCGCCGGCUGGGCAACUUUCCGAGGGGACCGUCCCCUCGGUAAUGGCGAAUGGGACCCA,0.0405
4,GGCCGGCAUGGUCCCAGCCUGCUCGCUGGCGCCGGCUGGGCAACCUUCCGAGGGGACCGUCCCCUCGGUAAUGGCGAAUGGGACCCA,0.18
5,GGCCGGCAUGGUCCCAGCCUGCUCGCUGGCGCCGGCUGGGCAACAUUCAGAGGGGACCGUCCCCUCGGUAAUGGCGAAUGGGACCCA,0
6,GGCCGGCAUGGUCCCAGCCUGCUCGCUGGCGCCGGCUGGGCAACAUUCUGAGGGGACCGUCCCCUCGGUAAUGGCGAAUGGGACCCA,0
7,GGCCGGCAUGGUCCCAGCCUGCUCGCUGGCGCCGGCUGGGCAACAUUCGGAGGGGACCGUCCCCUCGGUAAUGGCGAAUGGGACCCA,0
8,GGCCGGCAUGGUCCCAGCCUGCUCGCUGGCGCCGGCUGGGAAACAUUCCGAGGGGACCGUCCCCUCGGUAAUGGCGAAUGGGACCCA,0.0573
9,GGCCGGCAUGGUCCCAGCCUACGCGCUGGCGCCGGCUGGGCAACAUUCCGAGGGGACCGUCCCCUCGGUAAUGGCGAAUGGGACCCA,0.125
10,GGCCGGCAUGGUCCCAGCCUACCCGCUGGCGCCGGCUGGGCAACAUUCCGAGGGGACCGUCCCCUCGGUAAUGGCGAAUGGGACCCA,0.0755
11,GGCCGGCAUGGUCCCAGCCUGCUCGCUGGCGCCGGCUGGGCAACAUUCCGAGGGGACCGUCCCCUCGGUAAUGGCGACUGGGACCCA,0.0462
12,GGCCGGCAUGGUCCCAGCCUGCUCGCUGGCGCCGGCUGGGCAACAUUCCGAGGGGACCGUCCCCUCGGUAAUGGCGAGUGGGACCCA,0.135
13,GGCCGGCAUGGUCCCAGCCUACUCGCUGGCGCCGGCUGGGCAACAUUCCGACGGGACCGUCCCCUCGGUAAUGGCGAAUGGGACCCA,0.125
14,GGCCGGCAUGGUCCCAGCCUACUCGCUGGCGCCGGCUGGGCAACAUUCCGAUGGGACCGUCCCCUCGGUAAUGGCGAAUGGGACCCA,0.107
15,GGCCGGCAUGGUCCCAGCCUGCUCGCUGGCGCCGGCUGGGCAACAUUCCGAGGGGACCGUCCCCUCGGUAAUGGCGAAUGGGACCCA,0.0702
16,GGCCGGCAUGGUCCCAGCCUGCUCGCUGGCGCCGGCUGGGCAACAUUGCGAGGGGACCGUCCCCUCGGUAAUGGCGAAUGGGACCCA,0.115
17,GGCCGGCAUGGUCCCAGCCUGCUCGCUGGCGCCGGCUGGGCAACAUUACGAGGGGACCGUCCCCUCGGUAAUGGCGAAUGGGACCCA,0
18,GGCCGGCAUGGUCCCAGCCUACUCGCUGGCGCCGGCUGGGCAACAUUCCGAGGGGACCGUCCCCCCGGUAAUGGCGAAUGGGACCCA,0.0583
19,GGCCGGCAUGGUCCCAGCCUACUCGCUGGCGCCGGCUGGGCAACAUUCCGAGGGGACCGUCCCCGCGGUAAUGGCGAAUGGGACCCA,0.0665
20,GGCCGGCAUGGUCCCAGCCUGCUUGCUGGCGCCGGCUGGGCAACAUUCCGAGGGGACCGUCCCCUCGGUAAUGGCGAAUGGGACCCA,0
21,GGCCGGCAUGGUCCCAGCCUGCUAGCUGGCGCCGGCUGGGCAACAUUCCGAGGGGACCGUCCCCUCGGUAAUGGCGAAUGGGACCCA,0.0437
22,GGCCGGCAUGGUCCCAGCCUACUCGCUGGCGCCGGCUGGGCAACAUUCCGAGGGGACCGUCCCCUCGGUAAUGGCGAAAGGGACCCA,0.125

row,Variant,self-cleavage
1,GGCCGGCAUGGUCCCAGCCUACUCGCUGGCGCCGGCUGGGCAACAUUCCGAGGUGACCGUCCCCUCGGUAAUGGCGAAUGGGACCCA,0.0773
2,GGCCGGCAUGGUCCCAGCCUGCUCGCUGGCGCCGGCUGGGCAACAUUCCGAGGGGUCCGUCCCCUCGGUAAUGGCGAAUGGGACCCA,0.116
3,GGCCGGCAUGGUCCCAGCCUGCUCGCUGGCGCCGGCUGGGCAACAUUCCGAGGGGGCCGUCCCCUCGGUAAUGGCGAAUGGGACCCA,0.0791
4,GGCCGGCAUGGUCCCAGCCUGCUCGCUGGUGCCGGCUGGGCAACAUUCCGAGGGGACCGUCCCCUCGGUAAUGGCGAAUGGGACCCA,0.0308
5,GGCCGGCAUGGUCCCAGCCUGGUCGCUGGCGCCGGCUGGGCAACAUUCCGAGGGGACCGUCCCCUCGGUAAUGGCGAAUGGGACCCA,0
6,GGCCGGCAUGGUCCCAGCCUGUUCGCUGGCGCCGGCUGGGCAACAUUCCGAGGGGACCGUCCCCUCGGUAAUGGCGAAUGGGACCCA,0.0519
7,GGCCGGCAUGGUCCCAGCCUGAUCGCUGGCGCCGGCUGGGCAACAUUCCGAGGGGACCGUCCCCUCGGUAAUGGCGAAUGGGACCCA,0.0396
8,GGCCGGCAUGGUCCCAGCCUGCUCGCUGGCGCCGGCUGGGCAACAUUCCGAGGGGACCGUCCCCUCGGUAAUGGCGAAUGGGUCCCA,0.0875
9,GGCCGGCAUGGUCCCAGCCUACUCGCUGGCGCCGGCAGGGCAACAUUCCGAGGGGACCGUCCCCUCGGUAAUGGCGAAUGGGACCCA,0
10,GGCCGGCAUGGUCCCAGCCUACUCGCUGGCGCCGGCCGGGCAACAUUCCGAGGGGACCGUCCCCUCGGUAAUGGCGAAUGGGACCCA,0.196
11,GGCCGGCAUGGUCCCAGCCUACUCGCUGGCGCCGGCUGGGCAACAUUCCGAGGGAACCGUCCCCUCGGUAAUGGCGAAUGGGACCCA,0.129
12,GGCCGGCAUGGUCCCAGCCUACUCGCUGGCGCCGGCUGGGCAACAUUCCGAGGGUACCGUCCCCUCGGUAAUGGCGAAUGGGACCCA,0.0554
13,GGCCGGCAUGGUCCCAGCCUACUCGCUGGCGCCGGCUGGGCAACAUUCCGAGGGGACCGUCCCCUCGGUAAUGGCGAAUGGCACCCA,0.104
14,GGCCGGCAUGGUCCCAGCCUACUCGCUGGCGCCGGCUGGGCAACAUUCCGAGGGGACCGUCCCCUCGGUAAUGGCGAAUGGAACCCA,0.0594
15,GGCCGGCAUGGUCCCAGCCUACUCGCUGGCGCCGGCUGGGCAACAUUCCGAGGGGACCGUCCCCUCGGUAAUGGCGAAUGGUACCCA,0.0297
16,GGCCGGCAUGGUCCCAGCCUACUCGCUGGCGCCGGCUGGGCAACACUCCGAGGGGACCGUCCCCUCGGUAAUGGCGAAUGGGACCCA,0.0536
17,GGCCGGCAUGGUCCCAGCCUGCUCGCUGGCGCCGGCUGGGCAAGAUUCCGAGGGGACCGUCCCCUCGGUAAUGGCGAAUGGGACCCA,0.141
18,GGCCGGCAUGGUCCCAGCCUACUCGCUGGCGCCGGCUGGGCAACAUUCCGAGGGGACCGUCCCCUCGGUAAUGGCCAAUGGGACCCA,0.0997
19,GGCCGGCAUGGUCCCAGCCUACUCGCUGGCGCCGGCUGGGCAACAUUCCGAGGGGACCGUCCCCUCGGUAAUGGCUAAUGGGACCCA,0.0906
20,GGCCGGCAUGGUCCCAGCCUACUCGCUGGCGCCGGCUGGGCAACAUUCCGAGGGGACCGUCCCCUCGGUAAUGGCAAAUGGGACCCA,0.256
21,GGCCGGCAUGGUCCCAGCCUGCUCGCUGGCGACGGCUGGGCAACAUUCCGAGGGGACCGUCCCCUCGGUAAUGGCGAAUGGGACCCA,0.0415
22,GGCCGGCAUGGUCCCAGCCUGCUCGCUGGCGGCGGCUGGGCAACAUUCCGAGGGGACCGUCCCCUCGGUAAUGGCGAAUGGGACCCA,0.19

row,Variant,self-cleavage
1,GGCCGGCAUGGUCCCAGCCUGCUCGGUGGCGCCGGCUGGGCAACAUUCCGAGGGGACCGUCCCCUCGGUAAUGGCGAAUGGGACCCA,0.0723
2,GGCCGGCAUGGUCCCAGCCUACUCGCUGGCGCCGGCUGGGCAACAUUCCGAGGGGACCGUCCCCUCGGUAAUGGCGAAUAGGACCCA,0.0289
3,GGCCGGCAUGGUCCCAGCCUACUCGCUGGCGCCGGCUGGGCAACAUUCCGAGGGGACCGUCCCCUCGGUAAUGGCGAAUUGGACCCA,0.0622
4,GGCCGGCAUGGUCCCAGCCUGCUCGCUGGCGCCGGCUGGGCAACAUUCCGAGGGGACCGUCCCCUCGGUACUGGCGAAUGGGACCCA,0.0449
5,GGCCGGCAUGGUCCCAGCCUGCUCGCUGGCGCCGGCUGGGCAACAUUCCGAGGGGACCGUCCCCUCGGUAGUGGCGAAUGGGACCCA,0.0594
6,GGCCGGCAUGGUCCCAGCCUACUCGCUGGCGCCGGCUGGGCAACAUUCCGAGCGGACCGUCCCCUCGGUAAUGGCGAAUGGGACCCA,0.0639
7,GGCCGGCAUGGUCCCAGCCUGCUCGCUGGCGCCGGCUGGGCAACAUUCCGGGGGGACCGUCCCCUCGGUAAUGGCGAAUGGGACCCA,0.131
8,GGCCGGCAUGGUCCCAGCCUGCUCGCUGGCGCCGGCUGGGCAACAUUCCGUGGGGACCGUCCCCUCGGUAAUGGCGAAUGGGACCCA,0.0354
9,GGCCGGCAUGGUCCCAGCCUACUCGCUGGCGCCGGCUGGGCAACAUUCCGAGGGGACCGUCCCCUCCGUAAUGGCGAAUGGGACCCA,0.137
10,GGCCGGCAUGGUCCCAGCCUACUCGCUGGCGCCGGCUGGGCAACAUUCCGAGGGGACCGUCCCCUCUGUAAUGGCGAAUGGGACCCA,0.04
11,GGCCGGCAUGGUCCCAGCCUACUCGCUGGCGCCGGCUGGGCAACAUUCCGAGGGGACCGGCCCCUCGGUAAUGGCGAAUGGGACCCA,0.138
12,GGCCGGCAUGGUCCCAGCCUACUCGCUGGCGCCGGCUGGGCAACAUACCGAGGGGACCGUCCCCUCGGUAAUGGCGAAUGGGACCCA,0.0462
13,GGCCGGCAUGGUCCCAGCCUACUCGCUGGCGCCGGCUGGGCAACAUUCCGAGGGGACCGUCCCCUCGGUAACGGCGAAUGGGACCCA,0.101
14,GGCCGGCAUGGUCCCAGCCUACUCGCUGGCGCCGGCUGGGCAACAUUCCGAGGGGACCGUCCCCUCGGUAAUGGCGAAUGCGACCCA,0.0923
15,GGCCGGCAUGGUCCCAGCCUGCUCGCUGGCGCCGGCUGGGCUACAUUCCGAGGGGACCGUCCCCUCGGUAAUGGCGAAUGGGACCCA,0.0437
16,GGCCGGCAUGGUCCCAGCCUGCUCGCUGGCGCCGGCUGGGCGACAUUCCGAGGGGACCGUCCCCUCGGUAAUGGCGAAUGGGACCCA,0.0573
17,GGCCGGCAUGGUCCCAGCCUACUCGCUGGCGCCGGCUGGGCAACAUUCCGAGGGGACCGUCCCCUCGAUAAUGGCGAAUGGGACCCA,0.0779
18,GGCCGGCAUGGUCCCAGCCUACUCGCUGGCGCCGGCUGGGCAACAUUCCGAGGGGACCGUCCCCUCGUUAAUGGCGAAUGGGACCCA,0.0432
19,GGCCGGCAUGGUCCCAGCCUGCUCGCUGGCGCCGGCUGGGCAACAUUCCGAGGGGACCGUCCCCUCGGUAAUGGCGGAUGGGACCCA,0.0386
20,GGCCGGCAUGGUCCCAGCCUGCUCGCUGGCGCCGGCUGGGCAACAUUCCGAGGGGACCGUCCCCUCGGUAAUGGCGCAUGGGACCCA,0.0536
